T1: GDF11 (UniProt O95390)
T1 sequence (looked up): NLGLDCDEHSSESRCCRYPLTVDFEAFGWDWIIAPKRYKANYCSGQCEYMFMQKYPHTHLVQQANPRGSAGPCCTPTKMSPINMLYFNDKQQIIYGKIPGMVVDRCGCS

T2: Activin A (UniProt P08476)
T2 sequence (looked up): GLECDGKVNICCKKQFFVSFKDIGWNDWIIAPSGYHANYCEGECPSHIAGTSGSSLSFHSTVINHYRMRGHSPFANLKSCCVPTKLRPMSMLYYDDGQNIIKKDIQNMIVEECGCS

B1: ActRIIB(24-131)-hFc (Fc fusion, not shown: a dimerising Fc or GST)
chain: AETRECIYYNANWELERTNQSGLERCEGEQDKRLHCYASWRNSSGTIELVKKGCWLDDFNCYDRQECVATEENPQVYFCCCEGNFCNERFTHLPEAGGPEVTYEPPPT
B2: ActRIIB(22-131)-hFc (Fc fusion, not shown: a dimerising Fc or GST)
chain: GEAETRECIYYNANWELERTNQSGLERCEGEQDKRLHCYASWRNSSGTIELVKKGCWLDDFNCYDRQECVATEENPQVYFCCCEGNFCNERFTHLPEAGGPEVTYEPPPT
B3: ActRIIB(20-131)-hFc (Fc fusion, not shown: a dimerising Fc or GST)
chain: GRGEAETRECIYYNANWELERTNQSGLERCEGEQDKRLHCYASWRNSSGTIELVKKGCWLDDFNCYDRQECVATEENPQVYFCCCEGNFCNERFTHLPEAGGPEVTYEPPPT
B4: ActRIIB(23-131)-hFc (Fc fusion, not shown: a dimerising Fc or GST)
chain: EAETRECIYYNANWELERTNQSGLERCEGEQDKRLHCYASWRNSSGTIELVKKGCWLDDFNCYDRQECVATEENPQVYFCCCEGNFCNERFTHLPEAGGPEVTYEPPPT
B5: ActRIIB(21-131)-hFc (Fc fusion, not shown: a dimerising Fc or GST)
chain: RGEAETRECIYYNANWELERTNQSGLERCEGEQDKRLHCYASWRNSSGTIELVKKGCWLDDFNCYDRQECVATEENPQVYFCCCEGNFCNERFTHLPEAGGPEVTYEPPPT
B6: ActRIIB(20-132)-hFc (Fc fusion, not shown: a dimerising Fc or GST)
chain: GRGEAETRECIYYNANWELERTNQSGLERCEGEQDKRLHCYASWRNSSGTIELVKKGCWLDDFNCYDRQECVATEENPQVYFCCCEGNFCNERFTHLPEAGGPEVTYEPPPTA
B7: ActRIIB(20-128)-hFc (Fc fusion, not shown: a dimerising Fc or GST)
chain: GRGEAETRECIYYNANWELERTNQSGLERCEGEQDKRLHCYASWRNSSGTIELVKKGCWLDDFNCYDRQECVATEENPQVYFCCCEGNFCNERFTHLPEAGGPEVTYEP

target: T1, GDF11; assay: cell-based or functional assay

IC50 (ng/mL), conditioned media	Binder
69 ng/mL	B1
71 ng/mL	B2
183 ng/mL	B3
60 ng/mL	B4
121 ng/mL	B5

target: T2, Activin A; assay: cell-based or functional assay

IC50 (ng/mL), conditioned media	Binder
105 ng/mL	B1
100 ng/mL	B2
201 ng/mL	B3
43 ng/mL	B4
325 ng/mL	B5

target: T1, GDF11; assay: cell-based or functional assay; remark: another data set of the same source

IC50 (ng/mL), conditioned media	Binder
87 ng/mL	B6
130 ng/mL	B7
120 ng/mL	B3

target: T2, Activin A; assay: cell-based or functional assay; remark: another data set of the same source

IC50 (ng/mL), conditioned media	Binder
32 ng/mL	B6
158 ng/mL	B7
44 ng/mL	B3
